Where no end group is shown, it is not given here. [ ]: non-standard residue; d: D form. pY = N[C@@H](Cc1ccc(OP(=O)(O)O)cc1)C(=O)O
Columns and labels:
[1] = target: T1, FLAG-NME1 with 1-pHis, in stably transfected HEK293 cells (UniProt P15531 1-152, limits assumed, 1-phosphohistidine (generated in vivo)); assay: immunoblot of FLAG-NME1 293 cell lysates
T1 construct: not shown: FLAG tag
Procedure: Immunoblotting with anti-pHis antibodies: In general, immunoblotting with anti-pHis antibodies was performed with modifications to standard procedures to help preserve pHis for detection. Buffers were adjusted to pH 8-9 to stabilize pHis and methods were modified to avoid heating samples. Protein samples were prepared in pH 8.8 sample buffer (5×=10% SDS, 250 mM Tris-HCl, pH 8.8, 0.02% Bromophenol blue, 50% glycerol, 50 mM EDTA, 500 mM DTT) for electrophoresis. Mammalian whole cell lysates were prepared by rinsing 70-100% confluent 10 cm² dishes twice with 5 ml cold TD buffer (TBS −/−, pH 8). Cells were scraped directly into 2× pH 8.8 sample buffer, incubated on ice and a cup horn sonicator was used (3-5×5 sec bursts) to disrupt cells and shear DNA. Lysates were clarified by centrifugation (14,000×g for 5-15 min at 4° C.) and analyzed immediately using freshly prepared Bis-Tris polyacrylamide minigels with a modified, pH 8.8 stacking gel and either 10% or 12.5% resolving gels. Electrophoresis buffer recipes were as follows: Running Buffer: (1×20 L, pH 8.5) 20 g SDS, 60 g Trizma Base, 288 g glycine, dH₂0 to 20 L, Transfer Buffer: (1×4 L, pH 8.5) 56.7 g glycine, 4 g SDS, 12 g Trizma Base, 800 ml MeOH, dH₂0 to 4 L. All electrophoresis steps were performed at 4° C. and samples were resolved at 90-100V for 2-3 hr. […]

[2] = target: T2, Nck pY105 peptide (CGERLpYDLNMPAYVK); assay: pTyr peptide dot blot
T2 construct: also called pTyr (NCK) peptide; pTyr peptide (Nck pY105)
T2 peptide: CGERL[pY]DLNMPAYVK

[3] = target: T3, Eck (Ephrin A2) pY588 peptide (CLKPLKTpYVD); assay: pTyr peptide dot blot
T3 construct: also called Eck/EphA2 pTyr peptide
T3 peptide: CLKPLKT[pY]VD

[4] = target: T4, Nck Y105 peptide (CGERLYDLNMPAYVK); assay: pTyr peptide dot blot
T4 construct: also called unphosphorylated Nck peptide
T4 peptide: CGERLYDLNMPAYVK

[5] = target: T5, Eck (Ephrin A2) Y588 peptide (CLKPLKTYVD); assay: pTyr peptide dot blot
T5 construct: also called unphosphorylated Eck peptide
T5 peptide: CLKPLKTYVD

[6] = target: T6, FAK pY397 peptide (AVSVSETDDpYAEIIDEEDTYT) (phosphotyrosine at position 10 (pY397)); assay: pTyr peptide dot blot
T6 construct: also called FAK pTyr peptide
T6 peptide: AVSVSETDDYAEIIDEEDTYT

T1 sequence (P15531 whole entry): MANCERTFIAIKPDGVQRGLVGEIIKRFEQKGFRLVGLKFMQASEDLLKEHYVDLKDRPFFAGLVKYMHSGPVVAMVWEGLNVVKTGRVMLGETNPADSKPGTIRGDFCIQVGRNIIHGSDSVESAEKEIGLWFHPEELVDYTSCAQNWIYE

binding result [1]: no binding
binding result [2]: no binding
binding result [3]: no binding
binding result [4]: no binding
binding result [5]: no binding
binding result [6]: no binding
B1: 3-pHis mAb SC39-4 (antibody, V domains shown)
VH: ESGGRLVTPGGSLTLTCTVSGFSLSRYNMGWVRQAPGKGLEWIGWIPFRGSLKYATWATGRFTISRTSTTVDLRMTGLTAADTATYFCVRSSDGFDLWGPGTLVTVSS
VL: QFVMTQTPASVEAVVGGTVTIKCQASRDTGDGLIWYQQKPGQPPKRLIYKASTVASGVPSRFKGRGSGTDFTLTISDLECADAATYYCHSNFYNRWTYGNAFGGGTEVVVKG
notes: Rabbit hybridoma monoclonal IgG; also called anti-3-pHis mAb SC39-4; SC39s (subclones of MC39)
